From paper PMC7497161
*1 amine or outer side, *2 acyl side, *3 side chain or, on linkers, in order; H or OH if unused. Where no end group is shown, it is not given here. [ ]: non-standard residue; d: D form. Dap(Dnp) = diaminopropionic acid carrying a 2,4-dinitrophenyl quencher, O=C([C@H](CNc1ccc([N+](=O)[O-])cc1[N+](=O)[O-])N[*:1])[*:2]; 2Abz = Nc1ccccc1C(=O)O

Target: circularly permuted Caspase-2 double mutant Asp323Thr/His226Ala (human) (UniProt P42575)
UniProt P42575, sequence (P42575 whole entry H226A/D323T): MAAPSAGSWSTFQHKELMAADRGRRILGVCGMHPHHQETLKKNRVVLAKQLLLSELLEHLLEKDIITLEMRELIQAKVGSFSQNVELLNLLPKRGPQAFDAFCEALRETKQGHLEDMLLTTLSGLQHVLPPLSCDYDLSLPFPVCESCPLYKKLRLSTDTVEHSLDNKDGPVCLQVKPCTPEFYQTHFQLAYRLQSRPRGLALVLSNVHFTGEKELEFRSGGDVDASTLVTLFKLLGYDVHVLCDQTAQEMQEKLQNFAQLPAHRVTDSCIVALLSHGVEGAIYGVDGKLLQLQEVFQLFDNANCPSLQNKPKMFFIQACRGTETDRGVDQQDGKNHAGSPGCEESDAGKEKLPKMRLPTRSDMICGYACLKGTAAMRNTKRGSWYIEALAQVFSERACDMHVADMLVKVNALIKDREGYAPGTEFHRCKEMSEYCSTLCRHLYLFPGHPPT

Row | K M (Michaelis-Menten kinetics, FRET peptide-based cleavage assay, 1 μM enzyme) [µM] | Binder
1 | 57 | [2Abz]VDVADAA-{Dap(Dnp)} [Abz-VDVAD-AA-Dap(Dnp)]
2 | 77 | [2Abz]VDVADVA-{Dap(Dnp)} [Abz-VDVAD-VA-Dap(Dnp)]
3 | 193 | [2Abz]VDVADLA-{Dap(Dnp)} [Abz-VDVAD-LA-Dap(Dnp)]
4 | 55 | [2Abz]VDVADGA-{Dap(Dnp)} [Abz-VDVAD-GA-Dap(Dnp)]
5 | 82 | [2Abz]VDVADTA-{Dap(Dnp)} [Abz-VDVAD-TA-Dap(Dnp)]
6 | 43 | [2Abz]VDVADPA-{Dap(Dnp)} [Abz-VDVAD-PA-Dap(Dnp)]
